Laboratory results reported in US6365372.

Target: Gal-CBP1-2441 chimera (yeast) (UniProt P45481)
Assay: cell-based or functional assay

ability of Gal-CBP to activate transcription of pGal-CAT: 2.5 fold
Substance: SRCAP1275-2971 (from UniProt Q6ZRS2 1534-3230)
